The target in assay [1] is apo recombinant HRPII mutant with a 4 amino acid C terminus truncation (P. falciparum). The experiment in a line: AUC.
Assay [2] concerns the target histidine-rich protein II (HRPII) purified from conditioned media of cultured P. falciparum (P. falciparum strain 3D7). Put plainly: AUC.

Broadly, the stoichiometry N is the number of molecules, sites or subunits per partner or assembly. As for “apo recombinant HRPII mutant with a 4 amino acid C terminus truncation (domain or fragment)”, the stoichiometry N in assay [1] amounted to 3.
As to “histidine-rich protein II (HRPII) purified from conditioned media of cultured P. falciparum (natural protein)”, in assay [2], the stoichiometry N worked out at 14.

Source of the values: article PMC10293821.
